Reference: US10100114B2, “Antibodies specific for TROP-2 and their uses” (RINAT NEUROSCIENCE CORP., priority 2011, dated 2018)

How the values were obtained:
SW620 (Trop-2 −) cells = assay: Flow cytometry binding, SW620 cells; assay type: cell-based; conditions: 1 ug antibody
Procedure: For A431 cell staining, 200,000 cells were incubated with 0.5 ug antibody in 100 uL binding buffer (PBS (Phosphate Buffered Saline)+0.5% BSA (Bovine Serum Albumin)), followed by incubation with Dylight488-conjugated goat anti-human (Fab′)2-specific secondary antibody from Jackson immunoresearch Laboratories (West Grove, Pa.). For Colo205 and SW620 cells, 300,000 cells were used with 1 ug of primary antibody, followed by AlexaFluor 647 anti-human (Fab′)2-specific secondary antibody from Jackson immunoresearch Laboratories (West Grove, Pa.).
Similar to Example 7a), binding of chimeric mouse and humanized anti-Trop-2 6G11 antibodies (expressed in human IgG1 subtype) were assessed on Trop-2 expressing (A431 and Colo205) and non-expressing (SW620) cells by flow cytometry. 300,000 cells were used with 1 ug of primary antibody, followed by AlexaFluor 647 anti-human (Fab′)2-specific secondary antibody.

[1] = system: human Trop-2 domains swapped with Trop-1 (EpCAM) or mouse Trop-2 equivalent regions; assay: Domain mapping by domain swapping (Biacore); assay type: binding; conditions: for Binding to Trop-2 domain hybrid, domain 1: domain 1 replaced; for Binding to Trop-2 domain hybrid, domain 2: domain 2 replaced; for Binding to Trop-2 domain hybrid, domain 3: domain 3 replaced; for Binding to Trop-2 domain hybrid, domain 4: domain 4 replaced
Procedure: Domain mapping was done by swapping the Trop-2 extracellular domains with either Trop-1 (EpCAM) or mouse Trop-2 equivalent regions. […] These hybrid proteins were expressed as human Fc fusion proteins in 293F cells. Binding of anti-Trop-2 antibodies to these domain hybrids were determined by Biacore. […] Table 5. Definition of different domains of Trop-2 can be found, e.g., in Chong et al., J. Biol. Chem. 276(8):5804-13, 2001.

A431 xenograft = assay: In vivo efficacy of anti-Trop-2 mouse IgGs, A431 xenograft model; set-up: species or system nu/nu mice; conditions: 20 mg/kg once a week, 3 doses
Procedure: In vivo efficacy studies of anti-Trop-2 mouse IgGs were performed with target-expressing A431 xenograft model. Two million A431 epidermoid cancer cells were implanted subcutaneously into 5-8 weeks old nu/nu mice until the tumor sizes reached around 100 mm^3. Animals were randomized by tumor sizes and dosing was done through bolus tail vein injection. Anti-Trop-2 antibodies were expressed as recombinant mouse IgG2a antibodies from 293F transient expression. […] Tumor volume was measured twice a week by a caliper device and calculated with the following formula: Tumor volume=(length×width^2)/2. Studies were terminated before tumor volumes reached 2000 mm^3. TGI (% tumor growth inhibition) was determined as [1-tumor sizes (treatment group)/tumor size (control group)]×100.

human Trop-1 = biological target: T1, human Trop-1 (Homo sapiens, UniProt P16422, M115T); assay: Binding to human Trop-1; conditions: recombinant mouse IgG2a
T1 sequence (P16422 24-314 M115T): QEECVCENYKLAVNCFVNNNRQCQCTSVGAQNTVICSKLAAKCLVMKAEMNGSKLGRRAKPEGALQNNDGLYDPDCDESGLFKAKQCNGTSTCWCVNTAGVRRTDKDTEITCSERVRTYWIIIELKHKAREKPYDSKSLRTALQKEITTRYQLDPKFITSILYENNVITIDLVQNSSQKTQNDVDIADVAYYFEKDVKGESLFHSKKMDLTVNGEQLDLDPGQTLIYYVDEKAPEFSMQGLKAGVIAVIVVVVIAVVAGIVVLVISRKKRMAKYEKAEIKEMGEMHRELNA

mouse Trop-2 = biological target: T2, mouse Trop-2 (Mus musculus, UniProt Q8BGV3); assay: Binding to mouse Trop-2; conditions: recombinant mouse IgG2a
T2 sequence (Q8BGV3 25-317): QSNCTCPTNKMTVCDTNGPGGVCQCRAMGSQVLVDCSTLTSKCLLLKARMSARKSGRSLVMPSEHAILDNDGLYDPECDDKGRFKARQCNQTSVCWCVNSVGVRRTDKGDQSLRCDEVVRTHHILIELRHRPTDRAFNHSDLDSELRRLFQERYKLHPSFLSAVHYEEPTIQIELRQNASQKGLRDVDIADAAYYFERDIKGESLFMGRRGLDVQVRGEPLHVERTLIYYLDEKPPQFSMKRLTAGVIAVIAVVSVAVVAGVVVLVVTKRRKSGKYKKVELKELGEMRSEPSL

huTrop-2 = biological target: T3, huTrop-2 (Homo sapiens, UniProt P09758); assay: Biacore SPR affinity of anti-Trop-2 mouse antibodies; assay type: binding; conditions: mouse IgG captured by anti-mouse IgG; monomeric Trop-2 extracellular domain as analyte
T3 construct: Monomeric Trop-2 extracellular domain prepared from papain digestion of Trop-2-Fc fusion protein; Fc (cleaved yes); made in house
T3 sequence (P09758 27-274 limits assumed): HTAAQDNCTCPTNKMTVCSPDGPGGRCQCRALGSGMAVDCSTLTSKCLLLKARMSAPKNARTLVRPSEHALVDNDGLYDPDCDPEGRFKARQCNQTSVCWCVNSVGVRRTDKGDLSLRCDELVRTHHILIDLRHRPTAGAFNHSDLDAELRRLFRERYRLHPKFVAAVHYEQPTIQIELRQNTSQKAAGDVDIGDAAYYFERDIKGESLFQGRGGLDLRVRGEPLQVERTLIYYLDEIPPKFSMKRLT
Procedure: The affinities of anti-Trop-2 mouse antibodies generated from hybridomas were measured on a surface plasmon resonance Biacore™ 2000 or 3000 biosensor equipped with a research-grade CM5 sensor chip (Biacore™ AB, Uppsala, Sweden—now GE Healthcare). Anti-mouse IgG was first amine coupled to the CM5 sensor surface. Various anti-Trop-2 mouse IgGs were then captured by anti-mouse IgG. Monomeric Trop-2 extracellular domain prepared from papain digestion of Trop-2-Fc fusion protein was then injected as the analyte at 3 fold dilution series. […]

[2] = system: SW620 cells (Trop-2 non-expressing); assay: Cytotoxicity of ADCs (CellTiter-Glo), SW620; assay type: cell-based; conditions: Table 13; SW620, Trop2 expression −; 96 hours; concentration of total Ab
Procedure: Target expressing (A431, BxPC3, CAPAN-2 and Colo205) or non-expressing (SW620) cells were seeded on white walled clear bottom plates at 2000 cells/well for 24 hours before treatment. Cells were treated with 4 fold serially diluted antibody-drug conjugates in triplicates. Cell viability was determined by CellTiter-Glo® Luminescent Cell Viability Assay 96 (Promega, Madison Wis.) 96 hours after treatment. Relative cell viability was determined as percentage of untreated control. IC50 was calculated by Prism software.
2-methylalanyl-N-[(3R,4S,5S)-3-methoxy-1-{(2S)-2-[(1R,2R)-1-methoxy-2-methyl-3-oxo-3-{[(1S)-2-phenyl-1-(1,3-thiazol-2-yl)ethyl]amino}propyl]pyrrolidin-1-yl}-5-methyl-1-oxoheptan-4-yl]-N-methyl-L-valinamide is a novel auristatin, as described in U.S. Application Nos. 61/561,255 and 61/676,423. Method of conjugating Trop-2 antibodies using transglutaminase tags is described in Example 9. Target expressing or non-expressing (SW620) cells were seeded on white walled clear bottom plates at 2000 (A431, BxPC3, NCI-H292, NCI-H1650, MDA-MB-468 and SW620), 2500 (Calu-3) or 3000 (OVCAR3 and SKBR3) cells per well for 24 hours before treatment. Cells were treated with 4 fold serially diluted antibody-drug conjugates in triplicates. Cell viability was determined by CellTiter-Glo® Luminescent Cell Viability Assay 96 (Promega, Madison, Wis.) 96 hours after treatment. Relative cell viability was determined as percentage of untreated control. IC50 was calculated by GraphPad Prism 5 software and expressed as concentration (nM) of total Ab.

Colo205 xenograft = assay: In vivo efficacy of Trop-2 ADCs, colorectal tumor Colo205 xenograft model; set-up: species or system nu/nu mice; conditions: single dose of 6 mg/kg, tail vein; FIG. 10
Procedure: In vivo efficacy study of Trop-2 ADCs was performed with target-expressing colo205 xenograft model. Three millions of colo205 colon cancer cells were implanted subcutaneously into 5-8 weeks old nu/nu mice until the tumor sizes reached ˜300 mm^3. […] Tumor volume is measured once a week by a Caliper device and calculated with the following formula: Tumor volume=(length×width^2)/2. Studies were terminated before their tumor volumes reached 2000 mm^3.

[3] = system: cynomolgus monkey Trop-2-hFc; assay: Biacore SPR affinity of chimeric and humanized 7E6 Fab, cynomolgus Trop-2; assay type: binding; conditions: recombinant Fab fragments injected over captured cynomolgus monkey Trop-2-hFc
Source text: (§1) The human Trop-2-hFc or cynomolgus monkey Trop-2-hFc proteins were captured on the CM5 EDA chip 37 sensor surface coupled with anti-human Fc.

human Trop-2-hFc = biological target: T4, human Trop-2-hFc (Homo sapiens, UniProt P09758); assay: Biacore SPR affinity of chimeric and humanized 7E6 Fab, human Trop-2; assay type: binding; conditions: recombinant Fab fragments injected over captured human Trop-2-hFc
T4 construct: Monomeric Trop-2 extracellular domain prepared from papain digestion of Trop-2-Fc fusion protein
T4 sequence (P09758 27-274 limits assumed): T3 sequence (P09758 27-274 limits assumed)
Source text: as §1

human Trop2-ECD = biological target: T5, human Trop2-ECD (Homo sapiens, UniProt P09758); assay: Proteon XPR36 SPR of Fab/human Trop2-ECD interactions; assay type: binding; conditions: amine-coupled Fab; monovalent human Trop2-ECD 6, 30 and 150 nM; 25° C., pH 7.4
T5 sequence (P09758 27-274 limits assumed): T3 sequence (P09758 27-274 limits assumed)
Procedure: Analysis of Fab/human Trop2-ECD (Extracellular Domain) interactions was performed using a Bio-Rad Proteon XPR36 Surface Plasmon Resonance (SPR) biosensor (Bio-Rad, Hercules, Calif.) equipped with a GLC sensor chip. The assay temperature was 25° C., and the assay buffer was 10 mM Sodium Phosphate, 150 mM NaCl, 0.05% Tween-20, pH 7.4. An array of amine-coupled Fabs was prepared using the methodology described in Abdiche et al. (Anal. Biochem., 411: 139-151 (2011)). In each analysis cycle, monovalent human Trop2-ECD antigen was flowed at 30 μL/min over the immobilized Fabs for 3 minutes followed by a buffer wash for 15 minutes to monitor dissociation of the Fab/Trop2 complex. The sensor surface was regenerated between analysis cycles, using three 18-second injections of a 2:1 mixture (by volume) of Pierce IgG Elution buffer:4 M NaCl (Pierce, Rockford, Ill.). Binding and regeneration cycles were repeated at human Trop2-ECD concentrations of 6, 30 and 150 nM. The resulting data were fit to a 1:1 Langmuir binding model using the Proteon evaluation software.

B1: 6G11: anti-Trop-2 mouse antibody, VL SEQ ID NO: 8, VH SEQ ID NO: 9; also used as chimeric human IgG1 (antibody, V domains shown)
VH: QVQLQQPGAELVRPGASVKLSCKASGYTFTSYWINWVKQRPGHGLEWIGNIYPSDSYSNYNQKFKDKATLTVDKSSSTAYMQVSSPTSEDSAVYYCTYGSSFDYWGQGTTVTVSS
VL: DILLTQSPAILSVSPGERVSFSCRASQTIGTSIHWYQQRTNGSPRLLIKYASESISGIPSRFSGSGSGTDFTLSINSVESEDIADYYCQQSNSWPFTFGSGTKLEIK
SW620 (Trop-2 −) cells; Table 11, 300,000 cells
  % positive: 2.5%
  MFI: 134
[1]; defined by loss or reduction in binding on domain swapping
  human Trop-2 domains bound: domain 1
[1]; domain replacement hTrop1
  Binding to Trop-2 domain hybrid, domain 1: +
  Binding to Trop-2 domain hybrid, domain 2: −
  Binding to Trop-2 domain hybrid, domain 3: −
  Binding to Trop-2 domain hybrid, domain 4: −
[1]; domain replacement mTrop-2
  Binding to Trop-2 domain hybrid, domain 1: +
  Binding to Trop-2 domain hybrid, domain 2: −
  Binding to Trop-2 domain hybrid, domain 3: −
  Binding to Trop-2 domain hybrid, domain 4: −
A431 xenograft
  A431 xenograft tumor growth in vivo: inhibit A431 xenograft tumor growth
A431 xenograft; Table 7C
  Mean tumor volume (mm3) on day 27: 444.8 mm3
  TGI (Tumor growth inhibition): 57%
Human Trop-1
  binding to human Trop-1: do not bind
Mouse Trop-2
  binding to mouse Trop-2: do not bind
huTrop-2
  ka: 270000 M⁻¹ s⁻¹
  kd: 0.0086 s⁻¹

B2: h7E6SVG-LCQ03/K222R-vc0101: h7E6SVG K222R with light chain LCQ03 tag (SEQ ID NO: 78) conjugated with AcLys-vc-PABC-0101 (conjugate)
VH: QVQLQESGPGLVKPSETLSLTCTVSGGSISSYGVHWIRQPPGKGLEWIGVIWTSGVTDYNSALMGRVTISVDTSKNQFSLKLSSVTAADTAVYYCARDGDYDRYTMDYWGQGTLVTVSS
VL: DIVMTQSPDSLAVSLGERATINCRASKSVSTSGYSYMHWYQQKPGQPPKLLIYLASNLESGVPDRFSGSGSGTDFTLTISSLQAEDVAVYYCQHSRELPYTFGQGTKLEIK
[2]
  IC50: > 267 nM
Colo205 xenograft
  tumor response, Colo205 xenograft: tumor regression

B3: h7E6_SVG: humanized anti-Trop-2 antibody, VL SEQ ID NO: 3, VH SEQ ID NO: 5 (antibody, V domains shown)
VH: B2 VH
VL: B2 VL
SW620 (Trop-2 −) cells; Table 10, 300,000 cells
  % positive: 2.4%
  MFI: 139
[3]
  ka: 265000 M⁻¹ s⁻¹
  kd: 0.00189 s⁻¹
Human Trop-2-hFc
  ka: 97600 M⁻¹ s⁻¹
  kd: 0.000435 s⁻¹
Human Trop2-ECD
  ka: 170000 M⁻¹ s⁻¹
  kd: 0.00069 s⁻¹
